In patent US20100255578A1:

How the values were obtained:
[1] = biological target: H296-H296 (modified fibronectin fragment in which two H-296's are connected); assay: ELISA as in Example 34; H296-H296 coated at 3.125 ug/mL in PBS; HRP-labeled FNH3-8
H296-H296-HT [2] = assay: ELISA; H296-H296-HT coated at 4 ug/mL; HRP-labeled FNH3-8, ABTS; blank subtracted
[3] = biological target: H-296, a polypeptide comprising a heparin binding domain and a CS-1 domain of fibronectin (Homo sapiens (Human)) (UniProt P02751); assay: ELISA; H-296 coated at 50 ug/mL in 0.2 M phosphate buffer pH 6.2; HRP-labeled FNH3-8, ABTS
H296-H271 [4] = assay: ELISA; H296-H271 coated at 7 ug/mL; HRP-labeled FNH3-8, ABTS; blank subtracted
H296-H271, sequence (chain, as listed by the source limits assumed): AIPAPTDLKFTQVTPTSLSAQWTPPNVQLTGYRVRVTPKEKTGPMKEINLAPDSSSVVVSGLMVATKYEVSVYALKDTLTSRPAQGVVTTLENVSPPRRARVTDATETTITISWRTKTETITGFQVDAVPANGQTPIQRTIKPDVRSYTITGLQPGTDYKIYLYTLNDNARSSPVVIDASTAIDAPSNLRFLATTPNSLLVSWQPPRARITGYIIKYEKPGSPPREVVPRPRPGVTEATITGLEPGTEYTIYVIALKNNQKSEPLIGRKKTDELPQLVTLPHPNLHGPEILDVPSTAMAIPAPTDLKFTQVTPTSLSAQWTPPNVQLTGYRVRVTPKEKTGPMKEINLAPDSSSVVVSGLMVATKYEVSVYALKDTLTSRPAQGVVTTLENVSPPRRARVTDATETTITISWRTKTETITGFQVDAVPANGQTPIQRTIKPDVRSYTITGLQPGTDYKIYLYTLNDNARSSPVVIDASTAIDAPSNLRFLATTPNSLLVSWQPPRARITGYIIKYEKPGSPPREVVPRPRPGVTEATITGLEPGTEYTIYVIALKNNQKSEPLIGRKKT

H296-H296-HT [5] = assay: ELISA; H296-H296-HT coated at 0.5 ug/mL; HRP-labeled FNH3-8, ABTS; blank subtracted
[6] = biological target: H-296, a polypeptide comprising a heparin binding domain and a CS-1 domain of fibronectin (Homo sapiens (Human)) (UniProt P02751); assay: ELISA; H-296 coated at 50 ug/mL in 0.2 M phosphate buffer pH 6.8; HRP-labeled FNH3-8, ABTS
[7] = biological target: H-296, a polypeptide comprising a heparin binding domain and a CS-1 domain of fibronectin (Homo sapiens (Human)) (UniProt P02751); assay: ELISA as in Example 34; H-296 coated at 50 ug/mL in pH 5.6 acetate buffer; HRP-labeled FNH3-8
H296-H296-H296-HT [8] = assay: ELISA; H296-H296-H296-HT coated at 5 ug/mL; HRP-labeled FNH3-8, ABTS; blank subtracted
H296-H296-H296-HT, sequence (chain, as listed by the source limits assumed): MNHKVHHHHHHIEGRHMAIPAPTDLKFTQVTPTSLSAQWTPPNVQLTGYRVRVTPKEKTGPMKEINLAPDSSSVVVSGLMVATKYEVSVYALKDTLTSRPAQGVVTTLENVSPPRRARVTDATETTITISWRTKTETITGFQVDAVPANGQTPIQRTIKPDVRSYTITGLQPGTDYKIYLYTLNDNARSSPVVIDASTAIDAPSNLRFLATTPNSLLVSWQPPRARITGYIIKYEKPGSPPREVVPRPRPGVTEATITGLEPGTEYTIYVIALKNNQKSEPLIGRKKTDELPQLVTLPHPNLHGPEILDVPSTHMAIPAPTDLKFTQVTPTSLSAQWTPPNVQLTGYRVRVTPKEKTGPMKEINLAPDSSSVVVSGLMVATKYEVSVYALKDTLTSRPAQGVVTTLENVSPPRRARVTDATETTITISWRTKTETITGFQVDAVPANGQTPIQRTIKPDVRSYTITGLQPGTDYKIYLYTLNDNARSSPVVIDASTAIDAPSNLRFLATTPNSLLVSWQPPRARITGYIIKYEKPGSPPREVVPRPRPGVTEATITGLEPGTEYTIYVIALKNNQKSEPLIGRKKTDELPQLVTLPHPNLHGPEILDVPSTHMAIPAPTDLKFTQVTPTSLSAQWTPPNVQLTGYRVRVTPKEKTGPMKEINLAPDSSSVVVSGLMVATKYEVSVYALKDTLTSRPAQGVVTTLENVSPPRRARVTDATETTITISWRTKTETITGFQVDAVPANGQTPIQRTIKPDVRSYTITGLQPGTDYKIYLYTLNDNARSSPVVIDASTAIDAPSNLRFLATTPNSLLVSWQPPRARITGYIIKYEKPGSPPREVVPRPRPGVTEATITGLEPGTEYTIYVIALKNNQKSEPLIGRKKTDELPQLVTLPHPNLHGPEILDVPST

[9] = biological target: H-296, a polypeptide comprising a heparin binding domain and a CS-1 domain of fibronectin (Homo sapiens (Human)) (UniProt P02751); assay: ELISA; H-296 coated at 50 ug/mL in 0.2 M acetate buffer pH 5.6; HRP-labeled FNH3-8, ABTS
[10] = biological target: H-296, a polypeptide comprising a heparin binding domain and a CS-1 domain of fibronectin (Homo sapiens (Human)) (UniProt P02751); assay: ELISA as in Example 34; H-296 coated at 100 ug/mL in pH 5.6 acetate buffer; HRP-labeled FNH3-8
H296-H296-H296-HT [11] = assay: ELISA; H296-H296-H296-HT coated at 1 ug/mL; HRP-labeled FNH3-8, ABTS; blank subtracted
H271-H296 [12] = assay: ELISA; H271-H296 coated at 10 ug/mL; HRP-labeled FNH3-8, ABTS; blank subtracted
H271-H296, sequence (chain, as listed by the source limits assumed): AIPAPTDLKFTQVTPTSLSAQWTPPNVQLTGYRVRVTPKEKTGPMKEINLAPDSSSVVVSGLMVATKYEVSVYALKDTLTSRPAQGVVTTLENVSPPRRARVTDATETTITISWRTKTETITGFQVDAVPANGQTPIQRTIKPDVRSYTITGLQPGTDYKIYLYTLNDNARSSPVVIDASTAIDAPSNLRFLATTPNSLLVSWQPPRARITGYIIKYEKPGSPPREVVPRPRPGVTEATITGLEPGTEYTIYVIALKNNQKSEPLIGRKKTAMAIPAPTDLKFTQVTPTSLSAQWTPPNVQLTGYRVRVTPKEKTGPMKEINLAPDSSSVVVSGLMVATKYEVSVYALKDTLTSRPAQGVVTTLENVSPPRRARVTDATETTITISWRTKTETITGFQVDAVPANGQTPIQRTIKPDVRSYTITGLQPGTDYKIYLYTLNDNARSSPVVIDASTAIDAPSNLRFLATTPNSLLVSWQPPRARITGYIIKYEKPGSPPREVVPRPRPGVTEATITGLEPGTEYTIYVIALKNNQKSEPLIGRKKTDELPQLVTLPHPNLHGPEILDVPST

[13] = biological target: H-296, a polypeptide comprising a heparin binding domain and a CS-1 domain of fibronectin (Homo sapiens (Human)) (UniProt P02751); assay: ELISA; H-296 coated at 50 ug/mL in 0.2 M phosphate buffer pH 7.4; HRP-labeled FNH3-8, ABTS
H296-H271 [14] = assay: ELISA; H296-H271 coated at 11 ug/mL; HRP-labeled FNH3-8, ABTS; blank subtracted
H271-H296 [15] = assay: ELISA; H271-H296 coated at 18 ug/mL; HRP-labeled FNH3-8, ABTS; blank subtracted
[16] = biological target: H-296, a polypeptide comprising a heparin binding domain and a CS-1 domain of fibronectin (Homo sapiens (Human)) (UniProt P02751); assay: ELISA; H-296 coated at 50 ug/mL in 0.2 M acetate buffer pH 3.8; HRP-labeled FNH3-8, ABTS
H296-H296-H296-HT [17] = assay: ELISA; H296-H296-H296-HT coated at 3 ug/mL; HRP-labeled FNH3-8, ABTS; blank subtracted
[18] = biological target: H-296, a polypeptide comprising a heparin binding domain and a CS-1 domain of fibronectin (Homo sapiens (Human)) (UniProt P02751); assay: ELISA as in Example 34; H-296 coated at 200 ug/mL in pH 5.6 acetate buffer; HRP-labeled FNH3-8
H296-H271 [19] = assay: ELISA; H296-H271 coated at 15 ug/mL; HRP-labeled FNH3-8, ABTS; blank subtracted
[20] = biological target: H296-H296 (modified fibronectin fragment in which two H-296's are connected); assay: ELISA as in Example 34; H296-H296 coated at 6.25 ug/mL in PBS; HRP-labeled FNH3-8
[21] = biological target: H-296, a polypeptide comprising a heparin binding domain and a CS-1 domain of fibronectin (Homo sapiens (Human)) (UniProt P02751); assay: ELISA; H-296 coated at 50 ug/mL in 0.2 M phosphate buffer pH 8.0; HRP-labeled FNH3-8, ABTS
H271-H296 [22] = assay: ELISA; H271-H296 coated at 16 ug/mL; HRP-labeled FNH3-8, ABTS; blank subtracted
[23] = biological target: H-296, a polypeptide comprising a heparin binding domain and a CS-1 domain of fibronectin (Homo sapiens (Human)) (UniProt P02751); assay: ELISA; H-296 coated at 25 ug/mL in 0.2 M acetate buffer pH 3.8; HRP-labeled FNH3-8, ABTS
[24] = biological target: H-296, a polypeptide comprising a heparin binding domain and a CS-1 domain of fibronectin (Homo sapiens (Human)) (UniProt P02751); assay: ELISA as in Example 34; H-296 coated at 25 ug/mL in pH 5.6 acetate buffer; HRP-labeled FNH3-8
[25] = biological target: H296-H296 (modified fibronectin fragment in which two H-296's are connected); assay: ELISA as in Example 34; H296-H296 coated at 12.5 ug/mL in PBS; HRP-labeled FNH3-8
[26] = biological target: CH-296, a polypeptide comprising a cell binding domain, a heparin binding domain and a CS-1 domain of fibronectin (Homo sapiens (Human)) (UniProt P02751); assay: ELISA; CH-296 coated at 25 ug/mL; HRP-labeled FNH3-8, ABTS; blank subtracted
H296-H296-HT [27] = assay: ELISA; H296-H296-HT coated at 2 ug/mL; HRP-labeled FNH3-8, ABTS; blank subtracted

H296-H296-HT, sequence (chain, as listed by the source limits assumed): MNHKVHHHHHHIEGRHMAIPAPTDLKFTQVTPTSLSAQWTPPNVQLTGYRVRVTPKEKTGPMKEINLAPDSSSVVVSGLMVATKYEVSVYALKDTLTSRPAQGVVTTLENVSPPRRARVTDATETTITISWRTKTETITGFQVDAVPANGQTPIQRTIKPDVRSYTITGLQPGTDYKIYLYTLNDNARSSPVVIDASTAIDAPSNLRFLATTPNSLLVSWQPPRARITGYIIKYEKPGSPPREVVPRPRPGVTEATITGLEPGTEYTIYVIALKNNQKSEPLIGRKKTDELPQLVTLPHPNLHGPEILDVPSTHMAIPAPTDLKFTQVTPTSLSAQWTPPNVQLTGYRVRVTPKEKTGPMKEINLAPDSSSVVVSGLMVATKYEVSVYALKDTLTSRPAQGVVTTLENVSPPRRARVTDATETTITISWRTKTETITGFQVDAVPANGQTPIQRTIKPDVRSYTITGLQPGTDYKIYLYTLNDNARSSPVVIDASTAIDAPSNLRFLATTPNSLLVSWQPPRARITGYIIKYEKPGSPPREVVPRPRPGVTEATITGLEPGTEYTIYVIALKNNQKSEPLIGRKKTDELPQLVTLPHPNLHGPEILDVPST

Substance “FNH3-8 antibody (manufactured by TAKARA BIO INC.) labeled with HRP” has an absorbance at 405 nm [1] of 1.01, a 405 nm (Found Value - Blank) (H296-H296-HT [2]) of 0.843 and an absorbance at 405 nm [3] of 0.244. For the same substance, the 405 nm (Found Value - Blank) (H296-H271 [4]) was 0.518, the 405 nm (Found Value - Blank) (H296-H296-HT [5]) was 0.033 and the absorbance at 405 nm [6] was 0.167. The absorbance at 405 nm [7] was 0.304, the 405 nm (Found Value - Blank) (H296-H296-H296-HT [8]) was 0.87 and the absorbance at 405 nm [9] was 0.567. It also gave an absorbance at 405 nm [10] of 0.499, a 405 nm (Found Value - Blank) (H296-H296-H296-HT [11]) of 0.261 and a 405 nm (Found Value - Blank) (H271-H296 [12]) of 0.6. The absorbance at 405 nm [13] was 0.169, the 405 nm (Found Value - Blank) (H296-H271 [14]) was 0.561 and the 405 nm (Found Value - Blank) (H271-H296 [15]) was 0.61. For the same substance, the absorbance at 405 nm [16] was 0.213, the 405 nm (Found Value - Blank) (H296-H296-H296-HT [17]) was 0.743 and the absorbance at 405 nm [18] was 0.964. The 405 nm (Found Value - Blank) (H296-H271 [19]) was 0.635, the absorbance at 405 nm [20] was 1.29 and the absorbance at 405 nm [21] was 0.174. It also gave a 405 nm (Found Value - Blank) (H271-H296 [22]) of 0.594, an absorbance at 405 nm [23] of 0.243 and an absorbance at 405 nm [24] of 0.224. For the same substance, the absorbance at 405 nm [25] was 1.73, the 405 nm (Found Value - Blank) [26] was 0.564 and the 405 nm (Found Value - Blank) (H296-H296-HT [27]) was 0.54.
